± gives the standard deviation.

The data set in a line: protein stability index of a GFP-peptide fusion (GPS, HEK-293T) (PSI 1-6); higher = more stable.
Setting [1] is: treatment: DMSO, c terminus: a fixed tail appended.
[2] abbreviates: treatment: MLN4924 1 uM, 8 h, c terminus: a fixed tail appended.
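Further: 24-mer peptide tiles fused after GFP, lentivirally expressed, FACS-sorted into six equal bins by GFP/DsRed ratio, decoded by Illumina sequencing, PSI is the read-weighted mean bin number.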

With DSEFSMQEPMVPAKLGTQAEKDRR [PPFIA4], the protein stability index by setting is: under setting [1], 4.9 ± 0.77; under setting [2], 5.646 ± 0.045.

For HDELLAEHIKSLLIKNNSLPRKRQ [INTS3], the protein stability index by setting is: under setting [1], 5 ± 0.17; under setting [2], 4.98 ± 0.2.

In the case of KQKVMTHVSNGCQLLLGVKGHAF [JUNB], the protein stability index runs as follows: (treatment: DMSO, c terminus: native) 2.16 ± 0.21; (treatment: MLN4924 1 uM, 8 h, c terminus: native) 2.23 ± 0.21.

As to QGSRSGVSGGSRSLNMSRRDSEST [PHTF1], the protein stability index under setting [1] was 4.86 ± 0.4 and the protein stability index under setting [2] turned out to be 4.9 ± 0.22.
